This is an account of results in patent US20240034787A1 (TOKYO UNIVERSITY OF PHARMACY AND LIFE SCIENCES, published 2024).

In the assay the target is T1, LRP1 of rat retinal ganglion cells (rat, UniProt G3V928 20-4545).
T1 construct: Endogenous LRP1 in the rat retina (ganglion cell layer); also called LRP1 on retinal ganglion cells
The assay is described as follows: fluorescent immunostaining of rat retina sections after intravitreal administration (colocalisation in the ganglion cell layer). The protocol:
Frozen specimen preparation and immunofluorescence staining of rat eyeballs were performed in the following procedures. [0212] (1) Thinly sliced sections were prepared in the same manner as in the HE staining method. [0213] (2) 15% blocking buffer (in PBS, goat 15% serum, 0.05% Tween 20) was added and reacted at room temperature for one hour. [0214] (3) Washing was performed with PBS for 15 minutes. [0215] (4) A Primary antibody ([…] in 1% blocking buffer) was added and incubated overnight at 4° C. [0216] (5) Washing was performed with PBS for 15 minutes. [0217] (6) A secondary antibody (Alexa Fluor 488-bound goat anti-rabbit IgG (dilution 1:500, Invitrogen)) and Alexa Fluor 594-bound goat anti-human IgG (dilution 1:500, Invitrogen)) were added and reacted at room temperature for one hour. [0218] (7) Washing was performed with PBS containing Heochst33342 (1:2000 dilution) for one minute. [0219] (8) After encapsulation, observation was performed with a fluorescence microscope.
In the above experiment, it was observed by fluorescent immunostaining whether C2-D11 IgG binds to LRP1 of retinal ganglion cells after being administered into the vitreous body of rats. […] On the other hand, it was shown that the anti-OVA antibody was not colocalized.

T1 sequence (G3V928 20-4545 limits assumed): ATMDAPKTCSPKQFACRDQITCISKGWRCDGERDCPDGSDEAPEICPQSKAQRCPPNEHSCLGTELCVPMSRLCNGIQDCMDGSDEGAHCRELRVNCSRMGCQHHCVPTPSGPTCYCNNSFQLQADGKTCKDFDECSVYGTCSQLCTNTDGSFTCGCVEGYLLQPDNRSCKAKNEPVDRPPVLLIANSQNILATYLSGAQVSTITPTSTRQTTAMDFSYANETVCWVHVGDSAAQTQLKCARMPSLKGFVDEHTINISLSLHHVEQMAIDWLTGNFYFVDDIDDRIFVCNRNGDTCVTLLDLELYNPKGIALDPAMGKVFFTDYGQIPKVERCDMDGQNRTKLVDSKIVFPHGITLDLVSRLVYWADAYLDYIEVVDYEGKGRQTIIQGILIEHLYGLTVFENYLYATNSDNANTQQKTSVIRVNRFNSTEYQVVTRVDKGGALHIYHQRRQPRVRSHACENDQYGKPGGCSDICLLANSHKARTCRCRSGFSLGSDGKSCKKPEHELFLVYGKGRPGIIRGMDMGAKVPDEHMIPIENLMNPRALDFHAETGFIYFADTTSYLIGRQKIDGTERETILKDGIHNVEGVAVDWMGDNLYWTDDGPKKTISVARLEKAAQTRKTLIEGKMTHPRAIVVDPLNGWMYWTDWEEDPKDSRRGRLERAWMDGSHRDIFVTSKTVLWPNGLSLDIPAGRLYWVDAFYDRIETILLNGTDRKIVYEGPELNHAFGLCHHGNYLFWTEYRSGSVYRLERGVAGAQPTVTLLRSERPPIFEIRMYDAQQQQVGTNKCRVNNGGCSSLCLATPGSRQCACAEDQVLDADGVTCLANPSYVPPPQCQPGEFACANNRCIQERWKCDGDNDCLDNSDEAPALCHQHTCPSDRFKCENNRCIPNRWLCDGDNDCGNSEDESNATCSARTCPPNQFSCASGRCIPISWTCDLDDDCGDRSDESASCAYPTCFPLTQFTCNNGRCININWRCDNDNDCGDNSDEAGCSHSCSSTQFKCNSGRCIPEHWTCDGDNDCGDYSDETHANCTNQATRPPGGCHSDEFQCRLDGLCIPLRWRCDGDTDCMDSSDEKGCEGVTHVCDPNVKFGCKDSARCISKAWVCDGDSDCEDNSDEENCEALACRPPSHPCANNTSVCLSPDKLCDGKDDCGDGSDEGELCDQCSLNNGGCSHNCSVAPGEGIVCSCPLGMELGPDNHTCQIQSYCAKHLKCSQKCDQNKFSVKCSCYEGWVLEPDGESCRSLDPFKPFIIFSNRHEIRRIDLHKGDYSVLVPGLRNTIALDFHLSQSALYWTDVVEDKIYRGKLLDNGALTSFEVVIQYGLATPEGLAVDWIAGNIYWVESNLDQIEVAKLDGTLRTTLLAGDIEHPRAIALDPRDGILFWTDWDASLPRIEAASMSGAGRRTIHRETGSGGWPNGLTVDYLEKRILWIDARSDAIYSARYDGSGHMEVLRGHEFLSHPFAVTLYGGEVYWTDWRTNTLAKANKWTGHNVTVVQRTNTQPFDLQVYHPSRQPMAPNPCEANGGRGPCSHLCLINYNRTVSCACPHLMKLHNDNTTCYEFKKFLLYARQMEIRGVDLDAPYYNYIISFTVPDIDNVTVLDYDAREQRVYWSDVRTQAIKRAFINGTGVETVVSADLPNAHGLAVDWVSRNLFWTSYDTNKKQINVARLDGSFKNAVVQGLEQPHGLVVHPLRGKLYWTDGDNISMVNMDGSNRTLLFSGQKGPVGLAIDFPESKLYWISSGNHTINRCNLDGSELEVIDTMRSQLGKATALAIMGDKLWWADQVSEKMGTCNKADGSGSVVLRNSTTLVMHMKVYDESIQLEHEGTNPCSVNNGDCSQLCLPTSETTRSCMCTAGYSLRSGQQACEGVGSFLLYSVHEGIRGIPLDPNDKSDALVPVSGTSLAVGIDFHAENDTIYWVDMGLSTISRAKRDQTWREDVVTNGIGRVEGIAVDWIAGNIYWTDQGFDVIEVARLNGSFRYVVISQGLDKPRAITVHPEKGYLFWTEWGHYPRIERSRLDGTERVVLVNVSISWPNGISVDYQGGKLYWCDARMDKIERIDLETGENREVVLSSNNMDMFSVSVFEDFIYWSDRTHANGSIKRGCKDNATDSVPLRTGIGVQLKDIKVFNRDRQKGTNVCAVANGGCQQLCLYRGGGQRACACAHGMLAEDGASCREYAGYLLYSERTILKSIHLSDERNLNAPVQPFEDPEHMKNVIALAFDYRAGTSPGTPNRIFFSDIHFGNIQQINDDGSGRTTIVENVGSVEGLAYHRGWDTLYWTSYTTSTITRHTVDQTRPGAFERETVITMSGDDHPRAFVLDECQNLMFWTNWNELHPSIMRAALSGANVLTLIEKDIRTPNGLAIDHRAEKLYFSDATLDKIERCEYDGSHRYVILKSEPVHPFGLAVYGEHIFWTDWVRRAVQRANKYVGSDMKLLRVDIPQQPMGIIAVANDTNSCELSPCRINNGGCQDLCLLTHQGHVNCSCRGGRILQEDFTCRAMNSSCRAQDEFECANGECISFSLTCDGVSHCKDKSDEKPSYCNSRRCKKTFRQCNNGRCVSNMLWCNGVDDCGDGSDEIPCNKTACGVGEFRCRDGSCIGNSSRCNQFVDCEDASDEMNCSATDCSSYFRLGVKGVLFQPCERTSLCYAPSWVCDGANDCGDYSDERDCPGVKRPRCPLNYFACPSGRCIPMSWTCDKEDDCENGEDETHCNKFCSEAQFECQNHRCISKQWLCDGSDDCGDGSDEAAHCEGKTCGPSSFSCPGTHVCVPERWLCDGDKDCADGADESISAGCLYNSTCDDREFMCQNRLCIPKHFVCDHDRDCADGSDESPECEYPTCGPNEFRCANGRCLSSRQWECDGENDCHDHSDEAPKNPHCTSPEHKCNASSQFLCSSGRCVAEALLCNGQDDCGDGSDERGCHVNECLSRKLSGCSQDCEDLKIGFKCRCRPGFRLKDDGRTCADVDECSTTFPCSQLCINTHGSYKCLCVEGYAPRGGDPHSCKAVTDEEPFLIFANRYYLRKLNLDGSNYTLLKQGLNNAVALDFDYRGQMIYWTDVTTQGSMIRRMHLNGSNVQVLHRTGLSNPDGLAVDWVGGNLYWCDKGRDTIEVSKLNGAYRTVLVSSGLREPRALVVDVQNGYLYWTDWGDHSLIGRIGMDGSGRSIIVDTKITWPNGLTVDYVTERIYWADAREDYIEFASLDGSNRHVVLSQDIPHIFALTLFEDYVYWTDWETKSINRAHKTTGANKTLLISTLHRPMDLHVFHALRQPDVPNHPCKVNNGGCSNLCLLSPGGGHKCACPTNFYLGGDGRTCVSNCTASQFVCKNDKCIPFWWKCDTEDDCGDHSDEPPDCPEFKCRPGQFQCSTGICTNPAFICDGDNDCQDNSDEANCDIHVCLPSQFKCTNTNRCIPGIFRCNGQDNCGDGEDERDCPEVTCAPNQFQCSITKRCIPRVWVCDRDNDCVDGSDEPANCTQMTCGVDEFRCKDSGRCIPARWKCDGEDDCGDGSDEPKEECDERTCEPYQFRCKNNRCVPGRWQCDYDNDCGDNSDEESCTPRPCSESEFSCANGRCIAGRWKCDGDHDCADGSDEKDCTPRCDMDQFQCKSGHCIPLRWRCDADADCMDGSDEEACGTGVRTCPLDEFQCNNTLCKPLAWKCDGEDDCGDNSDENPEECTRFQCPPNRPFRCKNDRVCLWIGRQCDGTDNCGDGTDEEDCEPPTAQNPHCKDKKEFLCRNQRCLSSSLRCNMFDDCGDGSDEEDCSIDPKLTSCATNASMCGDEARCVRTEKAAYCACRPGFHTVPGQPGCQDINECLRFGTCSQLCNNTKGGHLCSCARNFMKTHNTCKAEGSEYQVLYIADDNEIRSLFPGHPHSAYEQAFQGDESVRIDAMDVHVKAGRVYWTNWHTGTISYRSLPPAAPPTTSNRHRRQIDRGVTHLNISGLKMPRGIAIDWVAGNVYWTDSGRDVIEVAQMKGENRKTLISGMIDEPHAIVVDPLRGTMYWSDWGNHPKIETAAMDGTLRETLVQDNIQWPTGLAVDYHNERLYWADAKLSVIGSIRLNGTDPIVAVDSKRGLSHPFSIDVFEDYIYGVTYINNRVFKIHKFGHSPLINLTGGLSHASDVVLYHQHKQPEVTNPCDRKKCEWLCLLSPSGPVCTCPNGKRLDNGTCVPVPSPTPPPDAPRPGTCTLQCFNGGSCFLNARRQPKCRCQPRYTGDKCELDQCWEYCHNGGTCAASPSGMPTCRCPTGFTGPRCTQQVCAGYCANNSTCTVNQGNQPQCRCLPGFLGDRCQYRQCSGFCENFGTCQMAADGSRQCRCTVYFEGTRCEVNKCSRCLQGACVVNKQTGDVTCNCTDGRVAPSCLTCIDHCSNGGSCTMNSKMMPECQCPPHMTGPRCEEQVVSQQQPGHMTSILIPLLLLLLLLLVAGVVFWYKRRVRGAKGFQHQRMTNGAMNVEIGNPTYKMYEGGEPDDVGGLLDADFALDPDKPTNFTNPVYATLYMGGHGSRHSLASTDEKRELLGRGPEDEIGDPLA

B1: anti-LRP1 human IgG1 antibody prepared from C2_D11 (antibody, V domains shown)
VH: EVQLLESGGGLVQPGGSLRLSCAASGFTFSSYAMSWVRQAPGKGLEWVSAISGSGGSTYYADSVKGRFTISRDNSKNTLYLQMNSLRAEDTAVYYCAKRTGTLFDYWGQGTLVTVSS
VL: SSELTQDPAVSVALGQTVRITCQGDSLRSYYASWYQQKPGQAPVLVIYGKNNRPSGIPDRFSGSSSGNTASLTITGAQAEDEADYYCNSSQAQRNAVVFGGGTKLTVLG
notes: VH and VL of C2_D11 were put into expression vectors with a human IgG1 Fc region and expressed in HEK-293; also called C2-D11 IgG; human C2-D11 IgG
Consider B1, for which the binding result is listed as “binds”.
